Reference: publication doi:10.1101/2022.08.26.505376 (bioRxiv, 2022)
Positions count from the first letter of the chain named. Like-named read-outs stand apart in the source and are kept apart here.

B1: KaiB (natural protein)
chain: MSPRKTYILKLYVAGNTPNSVRALKTLKNILEVEFQGVYALKVIDVLKNPQLAEEDKILATPTLAKVLPLPVRRIIGDLSDREKVLIGLDLLYGELQDSDDF
B2: KaiC (natural protein)
chain: MTSAEMTSPNNNSEHQAIAKMRTMIEGFDDISHGGLPIGRSTLVSGTSGTGKTLFSIQFLYNGIIEFDEPGVFVTFEETPQDIIKNARSFGWDLAKLVDEGKLFILDASPDPEGQEVVGGFDLSALIERINYAIQKYRARRVSIDSVTSVFQQYDASSVVRRELFRLVARLKQIGATTVMTTERIEEYGPIARYGVEEFVSDNVVILRNVLEGERRRRTLEILKLRGTSHMKGEYPFTITDHGINIFPLGAMRLTQRSSNVRVSSGVVRLDEMCGGGFFKDSIILATGATGTGKTLLVSRFVENACANKERAILFAYEESRAQLLRNAYSWGMDFEEMERQNLLKIVCAYPESAGLEDHLQIIKSEINDFKPARIAIDSLSALARGVSNNAFRQFVIGVTGYAKQEEITGLFTNTSDQFMGAHSITDSHISTITDTIILLQYVEIRGEMSRAINVFKMRGSWHDKAIREFMISDKGPDIKDSFRNFERIISGSPTRITVDEKSELSRIVRGVQEKGPES
B3: KaiCDT (phosphorylation mimic KaiC) (natural protein)
chain: B2 chain with S431D
B4: KaiCAA (dephosphorylation mimic KaiC) (natural protein)
chain: B2 chain with S431A, T432A
B5: KaiA (natural protein)
chain: MLSQIAICIWVESTAILQDCQRALSADRYQLQVCESGEMLLEYAQTHRDQIDCLILVAANPSFRAVVQQLCFEGVVVPAIVVGDRDSEDPDEPAKEQLYHSAELHLGIHQLEQLPYQVDAALAEFLRLAPVETMADHIMLMGANHDPELSSQQRDLAQRLQERLGYLGVYYKRDPDRFLRNLPAYESQKLHQAMQTSYREIVLSYFSPNSNLNQSIDNFVNMAFFADVPVTKVVEIHMELMDEFAKKLRVEGRSEDILLDYRLTLIDVIAHLCEMYRRSIPRET

What was measured:
Test in all cases: AUC
KaiC = molecular target: B2
[1] = molecular target: B3
AUC [2] = molecular target: the molecule itself
AUC [3] = molecular target: the molecule itself; remark: listed apart in the source
KaiA = molecular target: B5

Binder	stoichiometry N (AUC [2])	stoichiometry N (AUC [3])	further results
B1	4		binding result (KaiC): binds; binding result [1]: binds
B2		6	
B3			binding result (AUC [2]): binds
B4		6	binding result (KaiA): binds
B5	2		
